This is an account of results in PMC3365488 (Biochemistry, 2012).

This assay deals with T1, CheY complexed with the unlinked CheA P2 domain (E. coli, UniProt P0AE67 1-129; P07363 156-229).
T1 sequence (looked up) 1: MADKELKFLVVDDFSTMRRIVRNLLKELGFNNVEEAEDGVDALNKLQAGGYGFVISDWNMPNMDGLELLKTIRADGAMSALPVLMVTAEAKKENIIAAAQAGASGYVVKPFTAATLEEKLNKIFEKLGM
T1 sequence (looked up) 2: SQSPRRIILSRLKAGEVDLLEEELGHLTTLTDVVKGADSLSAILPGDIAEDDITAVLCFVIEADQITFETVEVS
Put plainly: NMR titration.

B1: CheA P1 domain (residues 1-134) (domain or fragment, E. coli, UniProt P07363 1-134, looked up)
chain: MSMDISDFYQTFFDEADELLADMEQHLLVLQPEAPDAEQLNAIFRAAHSIKGGAGTFGFSVLQETTHLMENLLDEARRGEMQLNTDIINLFLETKDIMQEQLDAYKQSQEPDAASFDYICQALRQLALEAKGET
Take B1: the dissociation constant (Kd) (in general, the concentration at which binding is half-saturated) is around 4.5 mM.
